From patent US20170368136A1 (REGENTS OF THE UNIVERSITY OF COLORADO A BODY CORPORATE, published 2017)
One block for each binder: values may come before it.

Molecular target: CaMKII
Test: cell-based or functional assay

Chain of CaMKII (chain, from a related filing, as listed by the source): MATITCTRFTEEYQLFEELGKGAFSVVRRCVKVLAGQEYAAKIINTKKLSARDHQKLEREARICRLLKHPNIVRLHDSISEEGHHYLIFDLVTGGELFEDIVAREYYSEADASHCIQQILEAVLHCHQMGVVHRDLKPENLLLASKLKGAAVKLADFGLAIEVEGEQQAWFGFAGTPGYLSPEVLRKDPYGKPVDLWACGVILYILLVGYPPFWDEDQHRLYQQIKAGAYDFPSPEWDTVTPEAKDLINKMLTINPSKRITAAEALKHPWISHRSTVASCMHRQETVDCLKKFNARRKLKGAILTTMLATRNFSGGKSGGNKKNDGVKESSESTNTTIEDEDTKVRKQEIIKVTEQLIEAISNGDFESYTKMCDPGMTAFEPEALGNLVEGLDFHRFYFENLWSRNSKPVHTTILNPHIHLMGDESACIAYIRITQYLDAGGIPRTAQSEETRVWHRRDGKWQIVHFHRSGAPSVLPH

IC50 of CaMKII inhibition (syntide 2): ~0.02 µM
fold potency of CaMKII inhibition against CN19: ~5 fold
Binder: KRAPKLGQIGRVKAVVIED [CN19a2v]

IC50 of CaMKII inhibition: ~0.001 µM
Binder: KRAPKLGQIGRVKAVDIED [CN19a2v V16D]

IC50, phosphorylation of syntide 2 by CaMKII: ~0.1 µM
Binder: KRPPKLGQIGRSKRVVIED [CN19]

IC50, phosphorylation of syntide 2 by CaMKII: ~0.1 µM
Binder: KRPPKLGQIGRSKRVVIEDD [CN20]

fold increase of potency of CaMKII inhibition against CN19 wild type: > 10 fold
Binder: KRPPKLGQIGRSKAVVIED [CN19 R14A]

IC50 of CaMKII inhibition: ~0.001 µM
Binder: KRAPKLGQIGRQKAVVIED [CN19a2v V12Q]

fold reduction of potency of CaMKII inhibition against CN19: > 3 fold
Binder: KRPPKLGQIGASKRVVIED [CN19 R11A]

IC50 of CaMKII inhibition (CaMKII activity assay, 0.1 nM CaMKII): ~0.00075 µM
fold potency of CaMKII inhibition against CN19: > 125 fold
Binder: KRAPKLGQIGRQKAVDIED [CN19o]

fold decrease of potency of CaMKII inhibition against CN19: > 3 fold
Binder: KRPPKLGQIGRAKRVVIED [CN19 S12A]
